In patent publication US20050113284A1, “Drug for regenerating tissue and vessel and method therefor” (priority 2001, published 2005):

T1: MERMUC bait protein (Homo sapiens, UniProt Q8N307)
T1 construct: Bait-2 corresponds to a 123 amino acid portion of the C-terminus (bait-2); expressed in transfected cells; host or cells: yeast AH109 strain (pGBKT7 bait vector)
T1 sequence (Q8N307 587-709): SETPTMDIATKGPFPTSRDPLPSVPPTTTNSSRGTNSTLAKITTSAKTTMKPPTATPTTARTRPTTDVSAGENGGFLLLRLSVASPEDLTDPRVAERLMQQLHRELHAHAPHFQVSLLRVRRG

B1: clone No. 3-312: prey protein: C-terminal 89 amino acids (amino acids 995-1083 of SEQ ID NO: 4) of the human c-Met β chain (protein, listed as Homo sapiens)
chain: LLQPEYCPDPLYEVMLKCWHPKAEMRPSFSELVSRISAIFSTFIGEHYVHVNATYVNVKCVAPYPSLLSSEDNADDEVDTRPASFWETS
B2: clone No. 2-22: prey protein: C-terminal 93 amino acids (amino acids 411-503 of SEQ ID NO: 10) of human MERMUC (protein, listed as Homo sapiens)
chain: SSRGTNSTLAKITTSAKTTMKPPTATPTTARTRPTTDVSAGENGGFLLLRLSVASPEDLTDPRVAERLMQQLHRELHAHAPHFQVSLLRVRRG
B3: clone No. 3-309: prey protein: C-terminal 91 amino acids (amino acids 993-1083 of SEQ ID NO: 4) of the human c-Met β chain (protein, listed as Homo sapiens)
chain: RRLLQPEYCPDPLYEVMLKCWHPKAEMRPSFSELVSRISAIFSTFIGEHYVHVNATYVNVKCVAPYPSLLSSEDNADDEVDTRPASFWETS
B4: prey DNA D: c-Met prey protein, amino acids 993-1073 of SEQ ID NO: 4 (protein, listed as Homo sapiens)
chain: RRLLQPEYCPDPLYEVMLKCWHPKAEMRPSFSELVSRISAIFSTFIGEHYVHVNATYVNVKCVAPYPSLLSSEDNADDEVD
B5: prey DNA A: c-Met prey protein, amino acids 1003-1083 of SEQ ID NO: 4 (protein, listed as Homo sapiens)
chain: DPLYEVMLKCWHPKAEMRPSFSELVSRISAIFSTFIGEHYVHVNATYVNVKCVAPYPSLLSSEDNADDEVDTRPASFWETS
B6: prey DNA E: c-Met prey protein, amino acids 993-1063 of SEQ ID NO: 4 (protein, listed as Homo sapiens)
chain: RRLLQPEYCPDPLYEVMLKCWHPKAEMRPSFSELVSRISAIFSTFIGEHYVHVNATYVNVKCVAPYPSLLS
B7: prey DNA B: c-Met prey protein, amino acids 1013-1083 of SEQ ID NO: 4 (protein, listed as Homo sapiens)
chain: WHPKAEMRPSFSELVSRISAIFSTFIGEHYVHVNATYVNVKCVAPYPSLLSSEDNADDEVDTRPASFWETS
B8: prey DNA C: c-Met prey protein, amino acids 1023-1083 of SEQ ID NO: 4 (protein, listed as Homo sapiens)
chain: FSELVSRISAIFSTFIGEHYVHVNATYVNVKCVAPYPSLLSSEDNADDEVDTRPASFWETS
B9: prey DNA F: c-Met prey protein, amino acids 993-1053 of SEQ ID NO: 4 (protein, listed as Homo sapiens)
chain: RRLLQPEYCPDPLYEVMLKCWHPKAEMRPSFSELVSRISAIFSTFIGEHYVHVNATYVNVK

Tested on: C-terminal region of human MERMUC (bait-2, bait-3)
Test: Yeast two hybrid screening of human kidney cDNA library with MERMUC baits
Assay type: binding
Conditions: bait-2 = 123 amino acid portion of the C-terminus of human MERMUC
Protocol: Specifically, yeast two hybrid system (Proc. Natl. Acad. Sci. USA., 1991, Vol.88, p.9578-9582) was performed to screen a human kidney cDNA library using cDNA corresponding to the C-terminal region of the human MERMUC as the bait (that is, fishing bait).
Two kinds of bait (bait-2 and bait-3) were designed using each of Ex.-2 and Ex.-3 as the core. Bait-2 corresponds to a 123 amino acid portion of the C-terminus (bait-2) and bait-3 corresponds to the 65 C-terminal amino acids (bait-3).
Each bait vector was obtained by inserting each DNA fragment obtained by digesting each of the PCR products with the restriction enzymes EcoRI and SalI into the EcoRI/SalI site of pGBKT7 vector (leucine biosynthesis gene as a marker; CLONTECH). In yeast, the gene within the vector is produced as a fusion protein ([fusion protein A]) with the DNA binding region (GAL4-DB) of the yeast transcription factor GAL4.
On the other hand, each cDNA of the human kidney derived cDNA library (CLONTECH) that is used for the screening with the bait vector is inserted in pADK vector (tryptophan biosynthesis gene as a marker). Therefore, proteins produced through the expression of each of these cDNAs in yeast are produced as a fusion protein ([fusion protein B]) with the GAL4 transcriptional activation region (GAL4-AD).
AH109 strain (leucine, tryptophan, histidine and adenine auxotrophic yeast; CLONTECH) was used as the yeast host. This yeast strain contains 3 types of genes (histidine biosynthesis gene, adenine biosynthesis gene and β-galactosidase gene) under the control of the GAL promoter on the chromosome.
The function as a transcription factor is recovered through the fusion of GAL4-DB and GAL4-AD by the binding of the bait protein (the fusion protein A) with the prey protein (the fusion protein B).
Each bait vector was introduced into yeast AH109 strain with the cDNA library plasmid mentioned above (50,000 clones per pool) by the polyethylene glycol/lithium acetate method for screening (J. Bacteriol., 1983, Vol. 153, p.163-16883; Curr. Genet., 1989, Vol. 16, p. 339-346; Nucleic Acids Res., 1991, Vol. 19, p. 5791; Nucleic Acids Res., 1992, Vol. 20, p.1425).
The marker for the first selection of yeast with the desired transformation in the present screening was acquired histidine non-requirement due to the expression of the histidine biosynthesis gene. Therefore, after introducing the plasmid, yeast was cultured for 5 days at 30° C. in yeast minimum medium that lacks leucine, tryptophan and histidine (SD/-Leu,-Trp,-His) used for selecting transformants.
Transformed yeast that grew on the plate upon cultivation were picked with toothpick and seeded on 3 kinds of plates described below, and then cultured for 5 days at 30° C. for a second selection of the desired clones: • <A> plate containing yeast minimum medium lacking leucine, tryptophan and histidine (SD/-Leu, -Trp, -His); • <B> plate containing yeast minimum medium lacking leucine, tryptophan and adenine (SD/-Leu, -Trp, -Ade); and • <C> plate containing yeast minimum medium lacking leucine and tryptophan, and supplemented with α-X-gal (20 ug/ml) (SD/-Leu, -Trp, +X-gal).
Positive clones were identified as colonies growing on both of the above-mentioned <A> and <B> plates (acquirement of histidine and adenine non-requirement) and showing blue color on plate <C> (α-X-gal addition) (expression of β-galactosidase activity). Four prey cDNA clones (clones No. 3-309, No. 3-312, No. 2-22 and No. 2-211) were selected as positive.

binding ability to the protein derived from bait-2 | Molecule
had binding ability | B1
had binding ability | B2
had binding ability | B3

Same assay, conditions: bait-3 = 65 C-terminal amino acids of human MERMUC

binding ability to the protein derived from bait-3 | Molecule
had binding ability | B1
had binding ability | B3

Target: T1, MERMUC bait protein
Test: Yeast two-hybrid binding of c-Met prey deletion proteins to MERMUC bait-2
Conditions: yeast growth on SD/-Leu,-Trp,-His and SD/-Leu,-Trp,-Ade; human MERMUC bait-2
Protocol: The present invention was performed using the reported yeast two-hybrid system (Proc. Natl. Acad. Sci. USA., 1991, Vol. 88, p.9578-9582) based on conventional method and the experimental protocols appended to the reagents.
PCR was performed using DNA (clone No. 3-309) corresponding to the 91 amino acids (amino acids 993-1083 of SEQ ID NO: 4) of the C-terminal region of the human HGF receptor c-Met β chain that was identified in the previous Example to have the binding ability to the cytoplasmic region of human MERMUC as a template. Seven DNA fragments shown below corresponding to the C-terminal region of the c-Met β chain having various lengths, wherein various length of N-terminal or C-terminal amino acids are deleted from said 91 amino acids were prepared via a conventional method by PCR: • A. DNA corresponding to a region (amino acids 1003-1083 of SEQ ID NO: 4) that lacks the 10 N-terminal amino acids of the 91 amino acids of the C-terminal human c-Met β chain; • B. DNA corresponding to a region (amino acids 1013-1083 of SEQ ID NO: 4) that lacks the 20 N-terminal amino acids of the 91 amino acids of the C-terminal human c-Met β chain; • C. DNA corresponding to a region (amino acids 1023-1083 of SEQ ID NO: 4) that lacks the 30 N-terminal amino acids of the 91 amino acids of the C-terminal human c-Met β chain; • D. DNA corresponding to a region (amino acids 993-1073 of SEQ ID NO: 4) that lacks the C-terminal 10 amino acids of the 91 amino acids of the C-terminal human c-Met β chain; • E. DNA corresponding to a region (amino acids 993-1063 of SEQ ID NO: 4) that lacks the 20 C-terminal amino acids of the 91 amino acids of the C-terminal human c-Met β chain; • F. DNA corresponding to a region (amino acids 993-1053 of SEQ ID NO: 4) that lacks the 30 C-terminal amino acids of the 91 amino acids of the C-terminal human c-Met β chain; and • G. DNA corresponding to a region (amino acids 993-1043 of SEQ ID NO: 4) that lacks the 40 C-terminal amino acids of the 91 amino acids of the C-terminal human c-Met β chain.
Furthermore, the forward and reverse primers used for the PCR were designed to contain an EcoRI site and SalI site at their 5′ end, respectively. Each of the DNA fragments prepared by PCR were inserted into the EcoRI/SalI site of pADKT7 vector (a vector for a prey protein that contains a tryptophan biosynthesis gene as a marker; CLONTECH) in frame with GAL4-AD to prepare prey vectors wherein each of the 7 DNAs described above is inserted.
Each of the 7 prey vectors was cointroduced into yeast AH109 strain with the human MERMUC bait-2 vector prepared in Example 1.
The binding activity between the c-Met prey proteins derived from the 7 DNA fragments and the MERMUC bait protein was analyzed by the yeast two-hybrid system described in Example 1. Specifically, the binding activity was evaluated based on the growth of yeast transformed with the vector on 2 kinds of yeast minimum media, i.e., (1) SD/-Leu, -Trp, -His media and (2) SD/-Leu, -Trp, -Ade media.

binding activity with MERMUC bait protein | Molecule
+ (bound) (+ (bound)) | B4
+ (bound) (+ (bound)) | B5
+ (bound) (+ (bound)) | B6
+ (bound) (+ (bound)) | B7
− (no binding) | B8
+ (bound) (+ (bound)) | B9
